Substitutions are numbered along the chain they refer to.
Target: T1, human Tie1 Fc (Homo sapiens, UniProt P35590)
T1 construct: selected against the Tie1 extracellular domain fused to human Fc or to a histidine purification tag
T1 sequence (P35590 22-759 limits assumed): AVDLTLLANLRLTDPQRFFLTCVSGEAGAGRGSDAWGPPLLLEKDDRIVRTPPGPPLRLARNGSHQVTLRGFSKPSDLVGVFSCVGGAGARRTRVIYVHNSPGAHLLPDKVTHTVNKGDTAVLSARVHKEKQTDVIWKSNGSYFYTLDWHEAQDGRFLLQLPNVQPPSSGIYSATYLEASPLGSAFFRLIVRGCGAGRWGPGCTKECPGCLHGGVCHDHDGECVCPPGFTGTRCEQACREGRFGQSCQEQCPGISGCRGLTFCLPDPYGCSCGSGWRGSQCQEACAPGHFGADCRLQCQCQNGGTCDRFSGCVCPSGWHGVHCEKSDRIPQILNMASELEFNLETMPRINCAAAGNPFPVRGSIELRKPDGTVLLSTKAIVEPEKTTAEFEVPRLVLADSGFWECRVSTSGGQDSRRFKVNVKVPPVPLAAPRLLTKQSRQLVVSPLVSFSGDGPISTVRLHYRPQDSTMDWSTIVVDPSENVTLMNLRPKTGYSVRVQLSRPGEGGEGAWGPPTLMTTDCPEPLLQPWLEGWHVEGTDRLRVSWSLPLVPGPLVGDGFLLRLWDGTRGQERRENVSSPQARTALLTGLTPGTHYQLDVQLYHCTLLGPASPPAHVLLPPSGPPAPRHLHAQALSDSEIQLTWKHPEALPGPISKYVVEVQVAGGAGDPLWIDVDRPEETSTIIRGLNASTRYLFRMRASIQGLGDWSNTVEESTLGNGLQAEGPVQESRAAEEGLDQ
Test: ELISA on recombinant Tie1-Fc
Format: binding
Details: soluble Fab 5 or 1 μg per 100 μl; 500 or 50 ng antigen per well
Procedure: To evaluate if the conversion of any of the somatic mutations in the framework of E3 back to germline residues had any effect on binding activity the soluble Fabs were produced. The soluble expression vector containing the parental E3 Fab and the germlined E3 Fab construct were grown overnight at 30° C. in 2×TY broth containing 100 μg/ml ampicillin and 2% glucose and use 4 ml of this overnight culture to inoculate 400 ml of 2×TY broth containing 100 μg/ml ampicillin and 0.1% glucose. Cells were grow at 37° C. until an OD600 of 0.8-1.0, 1 mM IPTG was added and the culture was maintained at 30° C. for 4 hours. The cultures were spun down at 4,000 rpm for 15 min at 4 C. […] Dialyze against PBS using dialysis cassettes (SLIDE-A-LYSER™ Dialysis Cassettes, MWCO 10,000, Pierce, cat. no. 66380) and determine the protein concentration from the absorbance at 280 nm assuming that a 1 mg/ml solution has an absorbance of 0.86. The quality of the preparations can be analyzed by reducing and non-reducing SDS-PAGE.
Wells of an IMMULON™ 2 HB plate coated overnight with 500 ng or 50 ng of purified recombinant human Tie1-Fc target antigen per 100 microliters 0.1 M sodium bicarbonate buffer, pH 8.5. […] After washing the wells seven times 100 microliters TMB-H2O2 solution was added to each well and the plate read at 630 nm in an ELISA.

B1: parental E3 Fab: soluble Fab fragment of the parental E3 anti-Tie1 antibody (antibody, V domains shown)
VH: EVQLLESGGGLVQPGGSLRLSCAASGFTFSMYGMVWVRQAPGKGLEWVSVISPSGGNTGYADSVKGRFTISRDNSKNTLYLQVNSLRAEDTAVYYCARAPRGYSYGYYYWGQGTLVTVSSASTKGPSVFPLAPSSKSTSGG
VL: DIQMTQSPLSLSASVGDRVTITCRASQGIGHYLAWYQQKPGKVPKLLIYTASTLQSGVPSRFSGSGSGTDFTLTINSLQPEDVATYYCQQFNSYPHTFGQGTRLDIK
binding to recombinant human Tie1-Fc in ELISA: bound to the recombinant human Tie1-Fc target antigen

B2: germlined E3 Fab: soluble Fab of E3 with LC framework regions germlined to DPK4; LC variable SEQ ID NO:159 (antibody, V domains shown)
VH: B1 VH
VL: B1 VL with L9S, N76S, D105E
binding to recombinant human Tie1-Fc in ELISA: bound to the recombinant human Tie1-Fc target antigen

Reference: patent US20100196361A1, “Method of inhibition of vascular development using an antibody” (DYAX CORP., priority 2003, published 2010)
